Source: the supplement of paper PMC9233669
Variants at the floor of the assay were thinned out.

Experiments:
biotinyl-Met-oxazolone = assay: self-aminoacylation, catalytic enhancement (BMO) (fold over background); higher = more active; k-Seq, kA / k0A0; sequences stand for … in GGGAAUGGAUCCACAUCUACGAAUUC…UUCACUGCAGACUUGACGAAGCUG
Summary of the method: (§1)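 Mutagenized RNA pools with a 21-nt variable region (0.43 μM) were reacted with each biotinyl-aminoacyl-oxazolone at 2–1250 μM for 90 minutes at room temperature, in 50 μL HEPES/NaCl/KCl/MgCl2/CaCl2 buffer containing 5% acetonitrile at pH 6.9–7.0. RNA captured on streptavidin was quantified by triplicate qPCR and by Illumina sequencing. The fraction reacted for each sequence was fit to a pseudo-first-order model with bootstrapping, and catalytic enhancement is the median kA divided by the uncatalyzed rate, taken as the low-activity peak of a bimodal Gaussian fit.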

biotinyl-Leu-oxazolone = assay: self-aminoacylation, catalytic enhancement (BLO) (fold over background); higher = more active; k-Seq, kA / k0A0; sequences stand for … in GGGAAUGGAUCCACAUCUACGAAUUC…UUCACUGCAGACUUGACGAAGCUG
Summary of the method: as §1

biotinyl-Phe-oxazolone = assay: self-aminoacylation, catalytic enhancement (BFO) (fold over background); higher = more active; k-Seq, kA / k0A0; sequences stand for … in GGGAAUGGAUCCACAUCUACGAAUUC…UUCACUGCAGACUUGACGAAGCUG
Summary of the method: as §1

biotinyl-Trp-oxazolone = assay: self-aminoacylation, catalytic enhancement (BWO) (fold over background); higher = more active; k-Seq, kA / k0A0; sequences stand for … in GGGAAUGGAUCCACAUCUACGAAUUC…UUCACUGCAGACUUGACGAAGCUG
Summary of the method: as §1

biotinyl-Val-oxazolone = assay: self-aminoacylation, catalytic enhancement (BVO) (fold over background); higher = more active; k-Seq, kA / k0A0; sequences stand for … in GGGAAUGGAUCCACAUCUACGAAUUC…UUCACUGCAGACUUGACGAAGCUG
Summary of the method: as §1

biotinyl-Ile-oxazolone = assay: self-aminoacylation, catalytic enhancement (BIO) (fold over background); higher = more active; k-Seq, kA / k0A0; sequences stand for … in GGGAAUGGAUCCACAUCUACGAAUUC…UUCACUGCAGACUUGACGAAGCUG
Summary of the method: as §1

| Sequence | self-aminoacylation (biotinyl-Met-oxazolone) | self-aminoacylation (biotinyl-Leu-oxazolone) | self-aminoacylation (biotinyl-Phe-oxazolone) | self-aminoacylation (biotinyl-Trp-oxazolone) | self-aminoacylation (biotinyl-Val-oxazolone) | self-aminoacylation (biotinyl-Ile-oxazolone) |
| --- | --- | --- | --- | --- | --- | --- |
| CUUCUUCAAAGAAUCGGUCUG [Fam1A.1 aminoacylation ribozyme variant] | 1.05 | 1.07 | 3.04 | 2.95 | 0.889 | 0.956 |
| CUUCUUCGAACAAUCGGUCUG [Fam1A.1 aminoacylation ribozyme variant] | 0.768 | 0.706 | 0.708 | 0.443 | 0.743 | 0.627 |
| CUUCUUCUAACAAUCGGUCUG [Fam1A.1 aminoacylation ribozyme variant] | 0.623 | 0.571 | 0.727 | 0.581 | 0.729 | 0.732 |
| GAAUUUGCUAAUAGUCGCAAG [Fam3.1 aminoacylation ribozyme variant] | 1.51 | 1.38 | 2.52 | 1.79 | 1.53 | 1.81 |
| GAGUGUGCUAAUAGUCGCAAG [Fam3.1 aminoacylation ribozyme variant] | 1.51 | 1.36 | 9.21 | 3.11 | 1.57 | 1.77 |
| GAGUUUGCAAAUAGUCGCAAG [Fam3.1 aminoacylation ribozyme variant] | 0.838 | 1.02 | 1.83 | 0.87 | 0.746 | 1.22 |
| GAGUUUGCUAAUACUCGCAAG [Fam3.1 aminoacylation ribozyme variant] | 0.939 | 1.01 | 1.09 | 1.12 | 1.07 | 1.03 |
| GAGUUUGCUAAUAGUCCCAAG [Fam3.1 aminoacylation ribozyme variant] | 1.33 | 0.812 | 4.57 | 1.64 | 1.1 | 1.05 |
| GAGUUUGCUAAUAGUCGCAAC [Fam3.1 aminoacylation ribozyme variant] | 1.31 | 0.998 | 1.19 | 1.2 | 1.19 | 1.4 |
| GAGUUUGCUAAUAGUCGCAUG [Fam3.1 aminoacylation ribozyme variant] | 1.59 | 1.25 | 2.24 | 1.17 | 1.44 | 1.59 |
| GAGUUUGCUAAUAGUCGCCAG [Fam3.1 aminoacylation ribozyme variant] | 2.45 | 1.47 | 2.04 | 2.6 | 1.69 | 2.51 |
| GAGUUUGCUAAUAGUCUCAAG [Fam3.1 aminoacylation ribozyme variant] | 0.852 | 0.855 | 6.85 | 2.43 | 1.08 | 1.32 |
| GAGUUUGCUAAUAUUCGCAAG [Fam3.1 aminoacylation ribozyme variant] | 1.45 | 1.46 | 1.73 | 1.62 | 1.36 | 2.04 |
| GAGUUUGCUAAUGGUCGCAAG [Fam3.1 aminoacylation ribozyme variant] | 0.779 | 0.903 | 2.82 | 1.16 | 1.02 | 0.99 |
| GAGUUUGGUAAUAGUCGCAAG [Fam3.1 aminoacylation ribozyme variant] | 1.75 | 1.73 | 3.41 | 2.36 | 1.55 | 1.94 |
| GAUCACCUAGGUCAUCGGGUG [Fam2.2 aminoacylation ribozyme variant] | 3.44 | 3.71 | 17.2 | 5.58 | 3.54 | 3.45 |
| GAUUUUGCUAAUAGUCGCAAG [Fam3.1 aminoacylation ribozyme variant] | 2.2 | 1.82 | 2.53 | 2.99 | 1.83 | 1.99 |
| GCACAAUUCAAGCAAUCGGUC [Fam1B.1 aminoacylation ribozyme variant] | 1.81 | 1.79 | 3.04 | 3.3 | 1.94 | 2.1 |
| GCACACUUCAACCAAUCGGUC [Fam1B.1 aminoacylation ribozyme variant] | 2.02 | 2.93 | 60.5 | 44 | 2.43 | 2.39 |
| GCACACUUCAAGCAAGCGGUC [Fam1B.1 aminoacylation ribozyme variant] | 1.93 | 2.06 | 3.91 | 3.01 | 2.54 | 2.42 |
| GCACACUUCAAGCAAUCGCUC [Fam1B.1 aminoacylation ribozyme variant] | 2.84 | 2.82 | 12.2 | 4.76 | 2.92 | 3.18 |

| Sequence | self-aminoacylation (biotinyl-Met-oxazolone) | self-aminoacylation (biotinyl-Leu-oxazolone) | self-aminoacylation (biotinyl-Phe-oxazolone) | self-aminoacylation (biotinyl-Trp-oxazolone) | self-aminoacylation (biotinyl-Val-oxazolone) | self-aminoacylation (biotinyl-Ile-oxazolone) |
| --- | --- | --- | --- | --- | --- | --- |
| GCACACUUCAAGCAAUCUGUC [Fam1B.1 aminoacylation ribozyme variant] | 0.605 | 0.708 | 1.22 | 0.902 | 0.867 | 0.87 |
| GCACACUUCAAGCAAUUGGUC [Fam1B.1 aminoacylation ribozyme variant] | 1.45 | 1.3 | 2.06 | 1.94 | 1.22 | 1.47 |
| GCACACUUCAAGCUAUCGGUC [Fam1B.1 aminoacylation ribozyme variant] | 1.36 | 1.35 | 1.47 | 1.81 | 1.48 | 1.48 |
| GCACACUUGAAGCAAUCGGUC [Fam1B.1 aminoacylation ribozyme variant] | 1.11 | 1.29 | 1.46 | 1.99 | 1.4 | 1.45 |
| GCACAGUUCAAGCAAUCGGUC [Fam1B.1 aminoacylation ribozyme variant] | 1.98 | 2.04 | 4.42 | 4.48 | 2.07 | 2.44 |
| GCACGCUUCAAGCAAUCGGUC [Fam1B.1 aminoacylation ribozyme variant] | 2.62 | 3.62 | 120 | 60.1 | 2.74 | 2.55 |
| GCAGACUUCAAGCAAUCGGUC [Fam1B.1 aminoacylation ribozyme variant] | 2.82 | 4.28 | 119 | 49.8 | 2.67 | 3.19 |
| GCAUACUUCAAGCAAUCGGUC [Fam1B.1 aminoacylation ribozyme variant] | 2.03 | 2.19 | 19.8 | 18 | 2.01 | 2.35 |
| GCUCACCUAGGUCAUCGGGUG [Fam2.2 aminoacylation ribozyme variant] | 6.13 | 6.79 | 35.1 | 9.1 | 5.77 | 5.39 |
| GGGUUUGCUAAUAGUCGCAAG [Fam3.1 aminoacylation ribozyme variant] | 1.89 | 2.45 | 12.3 | 6.82 | 2.01 | 2.32 |
| GUAACCCUGGUCAUCGAGUGA [Fam2.1 aminoacylation ribozyme variant] | 15.2 | 15.6 | 75.7 | 15.1 | 6.13 | 7.01 |
| GUACUUCAAACAAUCCGUCUG [Fam1A.1 aminoacylation ribozyme variant] | 1.02 | 1.45 | 2.63 | 2.16 | 1.24 | 1.49 |
| GUACUUCAAACAAUCGGUCUA [Fam1A.1 aminoacylation ribozyme variant] | 0.943 | 0.933 | 4.84 | 3.66 | 0.997 | 1.17 |
| GUACUUCAAACAAUCGGUUUG [Fam1A.1 aminoacylation ribozyme variant] | 1.66 | 1.89 | 40.2 | 27.8 | 1.59 | 1.85 |
| GUACUUCAAACAGUCGGUCUG [Fam1A.1 aminoacylation ribozyme variant] | 1.41 | 1.3 | 1.14 | 1.5 | 1.22 | 1.32 |
| GUUACCCAGGUCAUCGAGUGA [Fam2.1 aminoacylation ribozyme variant] | 6.63 | 6.2 | 22.2 | 7.86 | 3.78 | 4.24 |
| GUUACCCUGGUAAUCGAGUGA [Fam2.1 aminoacylation ribozyme variant] | 10.7 | 10.5 | 58.5 | 13.9 | 4.77 | 4.93 |
| GUUACCCUGGUCAUAGAGUGA [Fam2.1 aminoacylation ribozyme variant] | 11.1 | 12.6 | 85.2 | 14.1 | 5.04 | 5.89 |
| GUUACCCUGGUCAUCCAGUGA [Fam2.1 aminoacylation ribozyme variant] | 7.39 | 7.84 | 52.7 | 9.02 | 4.7 | 4.66 |
| GUUACCCUGGUCAUCGAAUGA [Fam2.1 aminoacylation ribozyme variant] | 1.52 | 1.84 | 1.45 | 2.55 | 1.81 | 1.58 |
| GUUACCCUGGUCAUCGACUGA [Fam2.1 aminoacylation ribozyme variant] | 1.4 | 1.45 | 0.937 | 1.01 | 1.21 | 1.2 |
